The supplement of paper PMC9112550, “Optimization of the antimicrobial peptide Bac7 by deep mutational scanning” (BMC Biology, 2022)

Tested on: Escherichia coli TOP10
Assay: shrunken log2 fold change of peptide-encoding DNA abundance (4.5 h post-induction vs induction); higher = less antimicrobial activity (less host growth inhibition)
Conditions: time post-induction: 4.5 h; library: site-saturation at positions 5, 18, 19, 20
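Also: peptides expressed intracellularly from a pBAD plasmid library in pooled LB shake-flask culture, induced with 0.3% L-arabinose, DNA abundance read by NGS, three biological replicates, DESeq2 with apeglm shrinkage.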

Row | Sequence | shrunken log2 fold change
1 | RRIRFRPPRLPRPRPRPLYNPRP | -0.644
2 | RRIRFRPPRLPRPRPRPMAEPRP | 0.0579
3 | RRIRFRPPRLPRPRPRPMDIPRP | -0.0635
4 | RRIRFRPPRLPRPRPRPMDQPRP | -0.247
5 | RRIRFRPPRLPRPRPRPMELPRP | 0.112
6 | RRIRFRPPRLPRPRPRPMERPRP | -0.208
7 | RRIRFRPPRLPRPRPRPMHFPRP | -0.136
8 | RRIRFRPPRLPRPRPRPMHHPRP | -0.449
9 | RRIRFRPPRLPRPRPRPMHVPRP | -0.0102
10 | RRIRFRPPRLPRPRPRPMIFPRP | -0.364
11 | RRIRFRPPRLPRPRPRPMILPRP | -0.29
12 | RRIRFRPPRLPRPRPRPMIYPRP | -0.441
13 | RRIRFRPPRLPRPRPRPMMVPRP | -0.112
14 | RRIRFRPPRLPRPRPRPMNEPRP | -0.595
15 | RRIRFRPPRLPRPRPRPMNIPRP | -0.192
16 | RRIRFRPPRLPRPRPRPMPAPRP | 0.283
17 | RRIRFRPPRLPRPRPRPMPHPRP | -0.0704
18 | RRIRFRPPRLPRPRPRPMSAPRP | -0.105
19 | RRIRFRPPRLPRPRPRPMSEPRP | -0.381
20 | RRIRFRPPRLPRPRPRPMSPPRP | -0.0304
21 | RRIRFRPPRLPRPRPRPMSRPRP | 0.0534
22 | RRIRFRPPRLPRPRPRPMTRPRP | -0.173
23 | RRIRFRPPRLPRPRPRPMYHPRP | -1.01
24 | RRIRFRPPRLPRPRPRPMYIPRP | -1.09
25 | RRIRFRPPRLPRPRPRPMYSPRP | -0.73

Row | Sequence | shrunken log2 fold change
26 | RRIRFRPPRLPRPRPRPNCYPRP | -0.435
27 | RRIRFRPPRLPRPRPRPNEMPRP | -0.0729
28 | RRIRFRPPRLPRPRPRPNFFPRP | -0.178
29 | RRIRFRPPRLPRPRPRPNGMPRP | -0.0957
30 | RRIRFRPPRLPRPRPRPNHQPRP | -0.736
31 | RRIRFRPPRLPRPRPRPNHSPRP | -0.832
32 | RRIRFRPPRLPRPRPRPNKYPRP | -0.684
33 | RRIRFRPPRLPRPRPRPNLLPRP | -0.187
34 | RRIRFRPPRLPRPRPRPNNHPRP | -0.571
35 | RRIRFRPPRLPRPRPRPNQGPRP | -0.197
36 | RRIRFRPPRLPRPRPRPNRIPRP | -0.619
37 | RRIRFRPPRLPRPRPRPNRLPRP | -0.121
38 | RRIRFRPPRLPRPRPRPNSGPRP | -0.166
39 | RRIRFRPPRLPRPRPRPNSNPRP | -0.996
40 | RRIRFRPPRLPRPRPRPNSTPRP | -0.671
41 | RRIRFRPPRLPRPRPRPNTLPRP | -0.239
42 | RRIRFRPPRLPRPRPRPNVAPRP | 0.365
43 | RRIRFRPPRLPRPRPRPNVKPRP | -0.574
44 | RRIRFRPPRLPRPRPRPNVYPRP | -0.558
45 | RRIRFRPPRLPRPRPRPNYDPRP | -0.866
46 | RRIRFRPPRLPRPRPRPPAGPRP | 0.727
47 | RRIRFRPPRLPRPRPRPPDGPRP | 0.209
48 | RRIRFRPPRLPRPRPRPPDWPRP | 0.701
49 | RRIRFRPPRLPRPRPRPPEDPRP | 0.357
50 | RRIRFRPPRLPRPRPRPPFFPRP | 0.243

Row | Sequence | shrunken log2 fold change
51 | RRIRFRPPRLPRPRPRPPFLPRP | -0.0645
52 | RRIRFRPPRLPRPRPRPPGKPRP | 0.2
53 | RRIRFRPPRLPRPRPRPPGSPRP | 0.238
54 | RRIRFRPPRLPRPRPRPPGVPRP | 0.168
55 | RRIRFRPPRLPRPRPRPPHCPRP | 0.362
56 | RRIRFRPPRLPRPRPRPPHPPRP | 0.615
57 | RRIRFRPPRLPRPRPRPPHVPRP | 0.203
58 | RRIRFRPPRLPRPRPRPPIFPRP | -0.0711
59 | RRIRFRPPRLPRPRPRPPIMPRP | -0.451
60 | RRIRFRPPRLPRPRPRPPIPPRP | 0.257
61 | RRIRFRPPRLPRPRPRPPKRPRP | 0.467
62 | RRIRFRPPRLPRPRPRPPLHPRP | 0.198
63 | RRIRFRPPRLPRPRPRPPMWPRP | 0.486
64 | RRIRFRPPRLPRPRPRPPNEPRP | 0.0211
65 | RRIRFRPPRLPRPRPRPPNNPRP | -0.445
66 | RRIRFRPPRLPRPRPRPPNWPRP | 0.211
67 | RRIRFRPPRLPRPRPRPPPKPRP | 1.58
68 | RRIRFRPPRLPRPRPRPPQFPRP | 0.0547
69 | RRIRFRPPRLPRPRPRPPSMPRP | 0.252
70 | RRIRFRPPRLPRPRPRPPSNPRP | 0.324
71 | RRIRFRPPRLPRPRPRPPVGPRP | 0.641
72 | RRIRFRPPRLPRPRPRPPVVPRP | 0.159
73 | RRIRFRPPRLPRPRPRPPWRPRP | 1.68
74 | RRIRFRPPRLPRPRPRPPYRPRP | 0.0239
75 | RRIRFRPPRLPRPRPRPPYTPRP | -0.419
